Literature values, collected in publication PMC2656448.

Target: Histone H3 (H3K4me0) (Homo sapiens) (UniProt P68431)

Question: For AIRE PHD1 (from UniProt O43918), which Kd is on record?
Answer: 5 µM
